Experimental findings from paper PMC10371762 (Bioactive Materials, 2023) are described below.

Common to all, as to test: SPR
Assay [1] concerns the target T1, human BMPR-II extracellular domain (human, UniProt Q13873 32-150, biotinylated at a 1:1 molar stoichiometric ratio using Sulfo-NHS-LC-biotin).
T1 sequence: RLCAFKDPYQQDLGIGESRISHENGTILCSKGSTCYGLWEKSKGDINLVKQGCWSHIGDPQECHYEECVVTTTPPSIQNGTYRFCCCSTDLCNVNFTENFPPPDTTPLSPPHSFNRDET

Assay [2] has as its target T2, Noggin (UniProt Q13253 28-232, biotinylated).
T2 sequence: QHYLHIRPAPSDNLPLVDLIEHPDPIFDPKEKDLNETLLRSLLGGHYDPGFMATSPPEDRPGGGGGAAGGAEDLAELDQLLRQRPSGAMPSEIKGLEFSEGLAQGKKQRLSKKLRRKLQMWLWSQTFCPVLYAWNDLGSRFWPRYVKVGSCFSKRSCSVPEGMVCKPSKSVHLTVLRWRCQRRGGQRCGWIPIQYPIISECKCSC

The target of assay [3] is human ALK1 extracellular domain (human, UniProt P37023 22-118, biotinylated at a 1:1 molar stoichiometric ratio using Sulfo-NHS-LC-biotin).
human ALK1 extracellular domain, sequence (P37023 22-118): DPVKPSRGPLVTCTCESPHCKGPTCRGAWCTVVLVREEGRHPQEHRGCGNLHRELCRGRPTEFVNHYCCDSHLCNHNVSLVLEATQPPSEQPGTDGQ

B1: BMP9 WT (ligand)
chain: SAGAGSHCQKTSLRVNFEDIGWDSWIIAPKEYEAYECKGGCFFPLADDVTPTKHAIVQTLVHLKFPTKVGKACCVPTKLSPISVLYKDDMGVPTLKYHYEGMSVAECGCR
Consider B1, for which the equilibrium dissociation constant (Kd) in assay [1] worked out at 13.3 nM.

B2: BMP2 WT (ligand)
chain: QAKHKQRKRLKSSCKRHPLYVDFSDVGWNDWIVAPPGYHAFYCHGECPFPLADHLNSTNHAIVQTLVNSVNSKIPKACCVPTELSAISMLYLDENEKVVLKNYQDMVVEGCGCR
Turning to B2, the figures for the dissociation constant (Kd) in assay [2] and in assay [1] were 1.2 nM and 66.9 nM, respectively.

B3: BMP9 HB (ligand)
chain: MAQAHKHQRKRLKSSCQKTSLRVNFEDIGWDSWIIAPKEYEAYECKGGCFFPLADDVTPTKHAIVQTLVHLKFPTKVGKACCVPTKLSPISVLYKDDMGVPTLKYHYEGMSVAECGCR
Consider B3, for which the dissociation constant (Kd) was found to be 5.59 nM in assay [3] and 11.6 nM in assay [1].
